Substitutions are numbered along the chain they refer to.

The target in assay [1] is T1, recombinant human IL-18Rα Fc chimera (R&D Systems, Cat. No. 816-LR) (human, UniProt Q13478 19-329).
T1 construct: Bought protein; also called hIL-18Rα (hFc-chimera R&D-Systems 816-LR); recombinant human IL-18Rα-Fc fusion protein; not shown: human Fc of the commercial chimera
T1 sequence: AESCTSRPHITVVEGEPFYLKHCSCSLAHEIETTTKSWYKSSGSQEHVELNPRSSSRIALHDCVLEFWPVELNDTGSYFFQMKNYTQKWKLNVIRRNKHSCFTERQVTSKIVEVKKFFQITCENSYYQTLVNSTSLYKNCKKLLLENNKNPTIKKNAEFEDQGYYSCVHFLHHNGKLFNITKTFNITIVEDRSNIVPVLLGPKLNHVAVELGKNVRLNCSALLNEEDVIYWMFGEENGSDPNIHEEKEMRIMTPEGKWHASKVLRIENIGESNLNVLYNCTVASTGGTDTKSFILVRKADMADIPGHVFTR
As to the kind of experiment: SPR (BIACORE), 37°C, antibody captured, hIL-18Rα hFc chimera in solution. The protocol: Coupling: amine coupling Buffer: 1×PBS (10×PBS, Ambion cat. AM9625), pH 7.4, 37° C. […] Association was measured by a hIL-18Rα-injection of 1.5 minutes at 37° C.; dissociation was measured by washing the chip surface with buffer for 10 minutes at 37° C. For calculation of apparent KD and other kinetic parameters the Langmuir 1:1 model was used.

For assay [2], the target named is T2, human IL-18Rα (IL-18R1) on human cells (KG-1 cells, PBMC, TH1-cultured T cells, whole blood) (human, UniProt Q13478 19-541).
T2 sequence: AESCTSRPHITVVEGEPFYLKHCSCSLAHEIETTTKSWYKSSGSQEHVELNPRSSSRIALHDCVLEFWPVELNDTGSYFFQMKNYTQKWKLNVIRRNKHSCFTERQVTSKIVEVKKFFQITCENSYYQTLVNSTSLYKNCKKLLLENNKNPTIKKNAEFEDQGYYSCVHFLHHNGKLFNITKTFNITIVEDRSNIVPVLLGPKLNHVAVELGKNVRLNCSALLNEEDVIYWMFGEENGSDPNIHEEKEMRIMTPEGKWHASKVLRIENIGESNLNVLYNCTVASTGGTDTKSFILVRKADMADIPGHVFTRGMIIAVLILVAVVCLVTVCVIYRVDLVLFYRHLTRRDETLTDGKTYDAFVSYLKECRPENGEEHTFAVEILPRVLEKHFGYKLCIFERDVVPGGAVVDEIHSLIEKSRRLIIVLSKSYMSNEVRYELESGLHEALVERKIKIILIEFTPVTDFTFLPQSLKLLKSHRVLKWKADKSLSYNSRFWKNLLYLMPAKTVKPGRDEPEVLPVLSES
As to the kind of experiment: cell-based or functional assay.

Assay [3] addresses T2, human IL-18Rα (IL-18R1) on human cells …. As to the kind of experiment: cell-based or functional assay. The source holds these as a separate data set.
For assay [4], the target named is T3, human IL-18Rα/IL-18Rβ on transfected HEK293 cells (human, UniProt O95256 20-599).
T3 construct: whole, on cells; also called human IL-18Ralpha+IL-18Rβ subunits
T3 sequence 1: T2 sequence
T3 sequence 2: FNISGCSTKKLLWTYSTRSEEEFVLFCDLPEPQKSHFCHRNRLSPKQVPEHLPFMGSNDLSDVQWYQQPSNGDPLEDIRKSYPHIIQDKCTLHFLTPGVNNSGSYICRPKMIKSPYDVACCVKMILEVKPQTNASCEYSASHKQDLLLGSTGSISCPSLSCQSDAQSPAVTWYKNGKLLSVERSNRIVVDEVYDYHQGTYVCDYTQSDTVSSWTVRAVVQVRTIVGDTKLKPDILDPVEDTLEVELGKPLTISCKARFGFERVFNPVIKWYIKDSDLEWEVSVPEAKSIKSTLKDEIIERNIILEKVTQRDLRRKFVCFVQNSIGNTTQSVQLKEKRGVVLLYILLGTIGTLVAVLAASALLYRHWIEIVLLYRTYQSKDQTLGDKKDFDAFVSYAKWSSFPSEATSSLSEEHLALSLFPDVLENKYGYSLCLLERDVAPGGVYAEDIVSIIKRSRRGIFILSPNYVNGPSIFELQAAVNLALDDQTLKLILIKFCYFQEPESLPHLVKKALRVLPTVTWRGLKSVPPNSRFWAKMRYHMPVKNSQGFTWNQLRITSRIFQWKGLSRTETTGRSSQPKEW
Briefly: FACS on transfected HEK293 cells, antibody 1 µg/ml. The method, then: 10⁶ HEK293 cells were transfected with a plasmid expressing human IL-18Ralpha+IL-18Rβ. Transfected cells were incubated for 1 day. 1×10⁵ cells were incubated on ice in PBS-buffer+2% FCS and stained with an IL-18Rα antibody (1 μg/ml). As secondary antibody anti-mouse IgG1-PE from R&D Systems (F0102B) was added in 1:20 dilution and as isotype control mouse IgG1 from BD Pharmingen (557273) was used at a concentration of 1 μg/ml.

B1: Mab 1G12 (antibody, V domains shown)
VH: QVQLQQPGAELVKPGASVRMSCKTSDYTFTSNWMHWVKQRPGQGLEWIGTIDPSDSYTYYNQKFKGRATLTVDTSSSTAYMQLSSLTSEDSAVYYCTTSGDYDADRYFDVWGAGTTVTVSS
VL: DIVLTQSPASLGVSLGQRATISCRASKSVSTSGDSYMHWYQQKPGQSPKLLIYLASNLESGVPARFSGSGSGTDFTLNIHPVEEEDAATYYCQQSRELPLSFGAGTKLELK
notes: Monoclonal antibody from immunized NMRI mice; detected with anti-mouse IgG1-PE / anti-mouse IgG; also called F20.1G12; monoclonal antibody 1G12
The koff is a measure of how fast the partners let go of each other. What is called kon is the second-order rate constant of association. With B1, in assay [1], the koff was 0.0002 s⁻¹, the kon turned out to be 8.2e+06 M⁻¹ s⁻¹ and the “t1/2” value was determined as 0.967 h. In addition, in assay [2], the “IL-18 induced IFNγ production in human PBMC, IC50 [ng/ml]” value was determined as 0.76 ng/mL. Further, in assay [3], the “IL-18 induced IFNγ production by human KG-1 cells, IC50 [pM]” value is 27 pM. Moreover, the binding result in assay [4] is given as “binds”.

B2: Mab 2D11 (antibody, V domains shown)
VH: B1 VH with R19K, T24A, R67K, Q82H
VL: B1 VL
notes: Monoclonal antibody from immunized NMRI mice; detected with anti-mouse IgG1-PE / anti-mouse IgG; also called F20.2D11
On to B2, for which, in assay [1], the koff was found to be 0.00019 s⁻¹, the kon was 7e+06 M⁻¹ s⁻¹ and the “t1/2” value came to 1.03 h. The “IL-18 induced IFNγ production in human PBMC, IC50 [ng/ml]” value in assay [2] stood at 1.71 ng/mL. Besides, in assay [3], the “IL-18 induced IFNγ production by human KG-1 cells, IC50 [pM]” value was 43 pM. Further, the binding result in assay [4] is “binds”.

The values above are taken from patent US20120156198A1 (Hoffmann-La Roche, published 2012).
